This is an account of results in US5635615, “High affinity HIV nucleocapsid nucleic acid ligands” (NeXstar Pharmaceuticals, Inc.).

Holding throughout (details): tags: processed NC, 55 aa, from pBH10, gift of Agouron Pharmaceutical; label: 5'-32P
The target in series [1] is T1, HIV-1 nucleocapsid p7 (NC) (Human immunodeficiency virus type 1 …, UniProt P03347 P03347:378-432). In words: inhibition; about 50% inhibition of NC-stimulated annealing of con+/con- DNA, 10 nM NC. Here is the method:
(§1) This buffer was used and the concentration of each oligo was reduced keeping their action time constant to find an oligo concentration that would give less than 10% duplex formation under these conditions. The conditions in the reaction used for inhibition assay was as follows. 400 pM each DNA oligo (con+/−) was mixed with 10 nM nucleocapsid for 6 minutes at 37° C. in binding buffer containing 200 mM NaCl in a reaction volume of 30 µl. After this time, reactions were stopped by placing on ice and loaded on gel after 2 minutes. Gels were run at 250 volts for 3.5 hours. In reactions where random RNA was added as inhibitor, the concentrations range from 6500 nM to 9 nM. Where selected RNAs were used, the range was 720 nM to 0.11 nM.

Series [2] addresses T1, HIV-1 nucleocapsid p7 (NC). In words: filter; 10 mM NaOAc pH 5.3, 0.1 mM ZnCl2, 5 mM MgCl2, 100 mM NaCl, 37 C.
Method: Binding assays were done by adding 5 μl of HIV-1 p7 nucleocapsid protein, at the appropriate concentrations (i.e., ranging from 6×10^-10 to 5×10^-8), to 45 μl of binding buffer (10 mM NaOAc (pH 5.3), 2 mM 2-mercaptoethanol, 0.1 mM ZnCl_2, 5 mM MgCl_2, 100 mM NaCl) on ice, then adding 80,000 cpm of kinased RNA (<200 fmoles) in a volume of 3 to 4 μl. This mix was incubated at 37° C. for 20 minutes. The reactions were then passed over nitrocellulose filters, which were pre-equilibrated in the same buffer, and washed five times with one milliliter each time using a 50 mM Tris-Cl pH 7.5 solution. Filters were dried and counted in cocktail. The protein used in these experiments were frozen and thawed only once. Each binding curve consisted of seven points and each point is the average of duplicates.
The dissociation constants for 12 of the 14 RNA species were determined by nitrocellulose filter binding. These experiments were carried out in duplicates. All binding curves were done using γ-^32P labeled RNA in binding buffer containing 100 mM NaCl.
Series [3] addresses T1, HIV-1 nucleocapsid p7 (NC). In words: inhibition; inhibition of NC-stimulated annealing of con+/con- DNA, 10 nM NC. Here is the method: as §1

B1: 400-17 (ssRNA)
RNA: GGGAGCUCAGAAUAAACGCUCAAGUUCUGAGAACUCUCCCCAUUCUAGUGUGCUUCGACAUGAGGCCCGGAUCCGGC
What is called IC50 is the concentration that inhibits the measured activity by half. A word on the Kd: it is the concentration at which binding is half-saturated. A low value points to a tighter complex. Take B1: the half-maximal inhibitory concentration (IC50) in series [1] is approximately 0.5 nM. The same molecule showed an equilibrium dissociation constant (Kd) in series [2] of 2 nM.

B2: 400-23 (ssRNA)
RNA: GGGAGCUCAGAAUAAACGCUCAACUGAGAACUCUCCCGCUCGCAUUAUUAACCUUCGACAUGAGGCCCGGAUCCGGC
For orientation: Ki means the equilibrium dissociation constant of an inhibitor or competing ligand from its target. A low value points to higher affinity. For the molecule B2, in series [2], binding was characterised by a dissociation constant (Kd) of 6 nM. In series [3], the Ki amounted to 3 nM.
